We go through 3 molecules from article PMC5594205 (Molecular Cell, 2017).

Like-named read-outs stand apart in the source and are kept apart here.

The labels stand for the following.
B1: recombinant human Rad51 (natural protein, UniProt Q06609 1-339, looked up)
chain: MAMQMQLEANADTSVEEESFGPQPISRLEQCGINANDVKKLEEAGFHTVEAVAYAPKKELINIKGISEAKADKILAEAAKLVPMGFTTATEFHQRRSEIIQITTGSKELDKLLQGGIETGSITEMFGEFRTGKTQICHTLAVTCQLPIDRGGGEGKAMYIDTEGTFRPERLLAVAERYGLSGSDVLDNVAYARAFNTDHQTQLLYQASAMMVESRYALLIVDSATALYRTDYSGRGELSARQMHLARFLRMLLRLADEFGVAVVITNQVVAQVDGAAMFAADPKKPIGGNIIAHASTTRLYLRKGRGETRICKIYDSPCLPEAEAMFAINADGVGDAKD
B2: His6-MBP-Polymerase α (1-109) (domain or fragment, human, UniProt P09884 1-109, looked up)
chain: MAPVHGDDSLSDSGSFVSSRARREKKSKKGRQEALERLKKAKAGEKYKYEVEDFTGVYEEVDEEQYSKLVQARQDDDWIVDDDGIGYVEDGREIFDDDLEDDALDADEK

Holding throughout (experiment): pull-down
The target in test [1] is recombinant human Pol α-primase complex (full-length) (human, UniProt P09884 1-1462; Q14181 1-598; P49642 1-420; P49643 1-509).
recombinant human Pol α-primase complex (full-length), sequence (Q14181 whole entry, chain 2 of 3): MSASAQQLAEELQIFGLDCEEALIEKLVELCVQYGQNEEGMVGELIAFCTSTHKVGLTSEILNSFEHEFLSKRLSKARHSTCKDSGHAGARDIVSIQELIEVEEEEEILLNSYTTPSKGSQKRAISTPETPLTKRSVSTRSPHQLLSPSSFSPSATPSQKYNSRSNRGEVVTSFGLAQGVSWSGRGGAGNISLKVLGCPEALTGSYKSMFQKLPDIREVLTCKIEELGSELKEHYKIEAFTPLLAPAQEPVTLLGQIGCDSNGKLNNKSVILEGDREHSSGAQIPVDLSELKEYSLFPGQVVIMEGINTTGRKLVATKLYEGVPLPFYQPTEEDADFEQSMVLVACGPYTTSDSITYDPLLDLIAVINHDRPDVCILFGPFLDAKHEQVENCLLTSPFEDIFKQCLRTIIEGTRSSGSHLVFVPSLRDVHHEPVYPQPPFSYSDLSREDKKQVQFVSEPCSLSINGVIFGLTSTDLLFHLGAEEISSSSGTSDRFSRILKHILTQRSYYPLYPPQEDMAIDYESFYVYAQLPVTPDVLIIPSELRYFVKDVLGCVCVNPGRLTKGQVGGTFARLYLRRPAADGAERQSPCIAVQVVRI
recombinant human Pol α-primase complex (full-length), sequence (P49642 whole entry, chain 3 of 3): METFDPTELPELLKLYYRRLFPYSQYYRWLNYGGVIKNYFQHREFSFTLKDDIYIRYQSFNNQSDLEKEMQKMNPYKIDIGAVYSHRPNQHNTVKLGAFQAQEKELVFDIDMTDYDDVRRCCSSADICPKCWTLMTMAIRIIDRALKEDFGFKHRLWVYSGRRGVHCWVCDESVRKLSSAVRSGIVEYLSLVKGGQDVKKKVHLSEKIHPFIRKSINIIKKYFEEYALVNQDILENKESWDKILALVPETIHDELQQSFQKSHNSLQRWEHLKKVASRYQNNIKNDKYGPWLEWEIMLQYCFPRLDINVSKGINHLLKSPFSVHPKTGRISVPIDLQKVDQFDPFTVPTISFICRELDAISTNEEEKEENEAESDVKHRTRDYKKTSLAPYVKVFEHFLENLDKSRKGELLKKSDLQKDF
recombinant human Pol α-primase complex (full-length), sequence (P49643 whole entry, chain 4 of 3): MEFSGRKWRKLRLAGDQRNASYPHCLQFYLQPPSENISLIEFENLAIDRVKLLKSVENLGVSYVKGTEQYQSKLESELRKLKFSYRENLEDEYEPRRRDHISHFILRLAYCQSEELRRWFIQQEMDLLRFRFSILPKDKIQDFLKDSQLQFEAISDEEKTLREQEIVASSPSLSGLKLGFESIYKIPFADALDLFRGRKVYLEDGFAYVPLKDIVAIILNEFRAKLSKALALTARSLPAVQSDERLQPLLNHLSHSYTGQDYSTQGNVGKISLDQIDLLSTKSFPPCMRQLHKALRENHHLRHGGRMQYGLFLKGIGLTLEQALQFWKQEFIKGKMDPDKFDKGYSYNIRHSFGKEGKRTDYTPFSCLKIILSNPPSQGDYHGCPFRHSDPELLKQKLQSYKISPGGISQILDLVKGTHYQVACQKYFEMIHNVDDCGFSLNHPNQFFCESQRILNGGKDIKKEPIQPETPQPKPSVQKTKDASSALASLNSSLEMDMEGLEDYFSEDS
The target in test [2] is B1.
In test [3] the target is B1. This is another data set of the same source.

Regarding B1, the binding result in test [1] is reported as “binds”. For LLGFHTASGKKVKIAKESLDKVKNLFDE [Brca2 BRC4 peptide], the binding result in test [2] was “binds”.

As for B2, the binding result in test [3] is listed as “binds”.
